Experimental data: US5516656A, “Production of a new hirudin analog and anticoagulant pharmaceutical composition containing the same” (Nippon Mining Company, Limited, priority 1990, dated 1996)
Changes are numbered by the printed parent chain.

Columns and labels:
Thrombin [1] = target: T1, Thrombin (Homo sapiens, UniProt P00734); assay: Inhibitory action of hirudin against thrombin induced death; assay type: in vivo, mice; design: Thrombin (10 NIH unit/10 g) was administered intravenously to male mice; conditions: for Score: score 0 normal, 1 disappearance of roll over reflection, 2 death within 20 minutes
Procedure: Thrombin (10 NIH unit/10 g) was administered intravenously to male mice (20-25 g), without anesthesia, and the anti-thrombin activity of the tested compound was evaluated by observing the disappearance of roll over reflection and death as indexes. All the tested compounds were dissolved in saline, and 0.05 ml/10 g were administered intravenously 5 min prior to the thrombin injection.

[2] = Prolongation of bleeding time (tail vein puncture wound); assay type: in vivo, mice; conditions: for Bleeding time: wound 5 minutes after administration
Procedure: Samples were injected into male mice (20-25 g) under anesthesia using sodium pentobarbital (40 mg/kg i.p.) via their tail vein. A puncture wound was made by inserting a 21 G needle (outer diameter 0.85 mm) into the other side of the tail vein 5 minutes after the administration of the test compounds, and the bleeding time of the wound was measured. A filter paper was put on the wound, with changes every 15 seconds. Bleeding time is defined as the time required until no red spot is observed on the filter paper.

Thrombin [3] = target: T1, Thrombin; assay: anti-thrombin activity, chromogenic substrate chromozyme TH; assay type: biochemical; design: purchased Sigma; conditions: purified by C4 reverse phase HPLC
Procedure: Precipitated cells of each sample were suspended in 1 ml of 50 mM Tris-HCl (pH7.5) containing 25% sucrose and 1 mM EDTA, followed by incubation at room temperature for 10 minutes. After collecting the cells by centrifugation at 6,000×g for 10 minutes, the cells were suspended in 1 ml of cold water to release the substances in the periplasmic space by osmotic shock. Cells were removed from the periplasmic fraction by centrifugation at 6,000×g for 10 minutes. The amount of secreted and periplasmically-accumulated hirudin was determined by measuring the anti-thrombin activity in the supernatant. The antithrombin activity is based on quantitative measurement of the color intensity generated by thrombin's hydrolytic activity on the synthetic chromogenic substrate chromozyme TH (Tocylglycil-prolylarginine-4-nitroanilideacetate, Boeringer-Mannheim) and hirudin's inhibitory activity against thrombin, which will repress color generation.
This reaction was carried out as follows. […]
Both the substrate and chromozymeTH were added to a final concentration of 200 μM to measure the release of p-nitroanilide by the increase of absorbance at 405 nm of the solution per 1 minute, and the anti-thrombin activity (ATU) was calculated.

HV1: hirudin variant 1, natural anti-coagulation peptide of Hirudo medicinalis, produced here by secretion from E. coli [reference compound]
Score (Thrombin [1]; 200 μg/10 g weight i.v. 5 min prior to thrombin 10 NIH unit/10 g): 0.6
Score (Thrombin [1]; 500 μg/10 g weight i.v. 5 min prior to thrombin 10 NIH unit/10 g): 0.4

B1: HV1C3: hirudin analog having the hirudin HV1 amino acid sequence up to the 52nd amino acid and thereafter substituted with the sequence of HV3 (protein)
chain: VVYTDCTESGQNLCLCEGSNVCGQGNKCILGSDGEKNQCVTGEGTPKPQSHNQGDFEPIPEDAYDE
Bleeding time ([2]; 50 μg/10 g weight i.v.): 264.0 ± 17.6 s
Bleeding time ([2]; 100 μg/10 g weight i.v.): 291.0 ± 30.2 s
Bleeding time ([2]; 200 μg/10 g weight i.v.): 369.0 ± 34.9 s
bleeding tendency compared with hirudin HV1 ([2]; mice, in words): less bleeding than hirudin HV1
anti-thrombin activity (specific / relative activity) of purified product (Thrombin [3]): 11,250 ATU/mg
Score (Thrombin [1]; 20 μg/10 g weight i.v. 5 min prior to thrombin 10 NIH unit/10 g): 1.2
Score (Thrombin [1]; 50 μg/10 g weight i.v. 5 min prior to thrombin 10 NIH unit/10 g): 0.6
Score (Thrombin [1]; 100 μg/10 g weight i.v. 5 min prior to thrombin 10 NIH unit/10 g): 0.4
inhibitory activity compared with hirudin HV1 in thrombin induced death (Thrombin [1]; in vivo, mice, relative to HV1): 4-5 times

B2: HV3: natural hirudin variant of 66 amino acids, produced here by secretion from E. coli (protein)
chain: B1 chain with V1I, V2T, Q24K, D33Q, E35K, K36D
anti-thrombin activity (specific / relative activity) of purified product (Thrombin [3]): 8139 ATU/mg
